Laboratory results reported in patent US20200332324.

Target: T1, E. coli type II fatty acid synthase ACP (AcpP), P0A6A8
T1 chain: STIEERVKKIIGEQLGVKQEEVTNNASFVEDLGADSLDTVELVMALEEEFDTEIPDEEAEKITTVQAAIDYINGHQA

B1: 4'-phosphopantetheinyl transferase Sfp from Bacillus subtilis (protein)
chain: MKIYGIYMDRPLSQEENERFMSFISPEKREKCRRFYHKEDAHRTLLGDVLVRSVISRQYQLDKSDIRFSTQEYGKPCIPDLPDAHFNISHSGRWVICAFDSQPIGIDIEKTKPISLEIAKRFFSKTEYSDLLAKDKDEQTDYFYHLWSMKESFIKQEGKGLSLPLDSFSVRLHQDGQVSIELPDSHSPCYIKTYEVDPGYKMAVCAAHPDFPEDITMVSYEELL
ACP phosphopantetheinylation with fluorescently labeled CoA (TAMRA-CoA), SDS-PAGE, UV fluorescence: protein extracts from all the recombinant cyanobacteria strains constructed here allowed the conversion of E. coli ACP to its fluorescently labeled derivative
